Here are results for two substances from US20240181074A1, “PEGYLATED T CELL ENGAGER WITH DUAL SPECIFICITIES TO CD3 AND CD19” (Shenzhen Enduring Biotech, Ltd., priority 2021, published 2024).

One series concerns the target T1, human CD3E&CD3D protein (Homo sapiens, UniProt P07766).
T1 construct: purchased AcroBiosystems CDD-H52W0
Put plainly: ELISA assay, binding to human CD3E&CD3D protein. As to conditions: coating concentration of 1 μg/ml, OD450. The method, then:
(§1) Plates were coated with SCACD3, CD3-PEG and JY108 respectively at 100 μl/well. […] After coating, each plate was washed for 3 times with PBST (200 μL/well). Next, each plate was blocked with 5% BSA in PBST at 37° C. for 2 hours. After blocking, each plate was washed with PBST for 3 times followed by the addition of either […], 0.1 μg, and 0 μg human CD19-Fc protein (Acrobiosystems, Code: CD9-H5259) in 0.5% BSA in PBST (10 μg/mL, 1 μg/mL, 0 μg/mL, 100 μL/well) or […] human CD3E&CD3D (Acrobiosytems, Code: CDD-H52W0) in 0.5% BSA in PBST (10 μg/mL, 100 μl/well) to corresponding wells. The plates were incubated at 37° C. for 1 hour followed by washing with PBST for 3 times. 100 μL of […] HRP conjugated anti-human IgG (GenScript, Code: A01854) was then added to each well. The plates were incubated at 37° C. for 1.5 hours. After incubation, each plate was washed with PBST for 3 times followed by the addition of 100 μL of TMB to each well. The development reaction for each plate was set in dark for 15 minutes and terminated with 100 μL/per well of stop solution.
(In general: In an ELISA, binding on a coated surface is turned into a signal by an enzyme label.)

Series [1] has as its target T2, human CD19 (Homo sapiens, UniProt P15391).
T2 sequence (P15391 20-291 limits assumed): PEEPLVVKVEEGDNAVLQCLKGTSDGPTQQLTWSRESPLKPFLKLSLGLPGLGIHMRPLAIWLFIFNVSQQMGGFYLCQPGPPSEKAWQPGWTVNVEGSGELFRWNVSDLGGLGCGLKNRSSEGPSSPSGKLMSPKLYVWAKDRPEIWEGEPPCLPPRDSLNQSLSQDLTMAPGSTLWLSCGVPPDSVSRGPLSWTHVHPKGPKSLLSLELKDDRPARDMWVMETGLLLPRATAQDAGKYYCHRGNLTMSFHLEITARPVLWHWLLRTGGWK
Description: BiaCore assay, binding to human CD19. As to conditions: ligand human CD19 captured on chip. From the text:
(§2) The anti-CD3 scFv (SCACD3) has the amino acid sequence set forth in SEQ ID NO: 2. The anti-CD19 scFv (SCACD19) has the amino acid sequence set forth in SEQ ID NO: 1. Methods for preparation of theses samples were described in detail in WO 2018/075308 A1.
(§3) General procedure: Diluted human CD19 (AcroBiosystems, Cat. CD19-H5259) or human CD3E&3D (AcroBiosystems, Cat. CDD-H52W0) were captured on the sensor chip through Fc capture method. The capture time for human CD3E & CD3D and for human CD19 was set for 12 s and 12-30 s respectively and capture flow rate was […]. Each sample tested was serially diluted into 6-8 concentrations. The association time and dissociation time for the analytes were set for 180 s and 420 s respectively, and the flow rate for the analyte was set at […]. For surface regeneration, 10 mM Glycine-HCl buffer was used; the contact time was set for 30 s and the flow rate was […]. Flow cell 1 and blank injection of buffer in each cycle were used as double references for Response Units subtraction. All data were processed using BiaCore T2000 Evaluation software (version 3.1).
In general terms: Surface plasmon resonance follows binding to a sensor surface in real time, without labels.

A further series concerns patients. The following applies: human, in vivo; cited from earlier work.
For series [2], the target named is T2, human CD19. Description: ELISA assay, binding to human CD19 protein. As to conditions: OD450. As for the experimental part:
as §1

Another series concerns the target T3, human CD3E&3D (Homo sapiens, UniProt P07766).
T3 construct: purchased AcroBiosystems CDD-H52W0
Put plainly: BiaCore assay, binding to human CD3E&3D. As to conditions: ligand human CD3E&3D captured on chip.
Excerpt: as §2, §3

The conditions of series [3]: in vivo; cited from earlier work.
For series [4] the following is noted: human, in vivo; cited from earlier work.
For the next series, the system named is MS patients. As to conditions: at 48 weeks; cited from earlier work.

T3 sequence (P07766 23-126 limits assumed): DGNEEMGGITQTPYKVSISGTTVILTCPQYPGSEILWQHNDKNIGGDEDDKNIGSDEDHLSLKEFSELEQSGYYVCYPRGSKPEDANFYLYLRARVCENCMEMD
T3 sequence (P04234 22-105 partner limits assumed): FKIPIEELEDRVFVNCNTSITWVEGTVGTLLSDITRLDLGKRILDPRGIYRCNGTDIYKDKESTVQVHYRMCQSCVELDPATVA
T1 sequence (P07766 23-126 limits assumed): as the sequence (P07766 23-126 limits assumed) above
T1 sequence (P04234 22-105 partner limits assumed): as the sequence (P04234 22-105 partner limits assumed) above

“Blinatumomab: T-BsAb or BiTE (Bispecific T cell Engager) approved for ALL, redirecting T cells to CD19+ B cells; control drug”: in the series with human CD3E&CD3D protein, the “ranking of affinity to human CD3E&CD3D” value is “SCACD3>blinatumomab>JY108>SCACD3-PEG”. In the series with human CD19 [1], this substance yielded a Kd of 0.207 nM, a ka of 1.92e+06 M⁻¹ s⁻¹ and a kd of 0.000397 s⁻¹. Moreover, binding with human CD19 [1] (listed as blinatumomab) was characterised by a dissociation constant (Kd) of 0.207 nM. Also, in the series on patients, the toxicity in patients entry is “frequent cytokine release syndrome (CRS) and central nerve system (CNS) toxicity”. Besides, in the series with human CD19 [2], the “ranking of binding to human CD19” value is recorded as “SCACD19>blinatumomab>JY108>SCACD19-linker”. Further, in the series with human CD3E&3D, the dissociation constant (Kd) stood at 1.14 nM, the ka stood at 1.08e+06 M⁻¹ s⁻¹ and the kd came out at 0.00123 s⁻¹. Further, in series [3], the half-life entry is “about 2 h”. For the same substance, the circulation half-life in series [4] is 1.25 h.

On to rituximab: anti-CD20 antibody, for which, in the series on MS patients, the “MS patients experiencing relapse of the disease” value is roughly 20%.

By Kd is commonly meant a measure of binding affinity in units of concentration. The low end stands for a tighter complex, the high end for a looser complex.
